Laboratory results from patent US20260209386A1 (MYTHIC THERAPEUTICS, published 2026).
Residue numbers refer to the chain shown, from its start.

T1: Human PTK7/CCK4 Protein, His Tag, Acro Biosystems PT7-H52H3 (human, UniProt Q13308 31-704)
T1 construct: bought protein; also called Human PTK7 Protein, His Tag, Acro Biosystems; not shown: His tag
T1 sequence: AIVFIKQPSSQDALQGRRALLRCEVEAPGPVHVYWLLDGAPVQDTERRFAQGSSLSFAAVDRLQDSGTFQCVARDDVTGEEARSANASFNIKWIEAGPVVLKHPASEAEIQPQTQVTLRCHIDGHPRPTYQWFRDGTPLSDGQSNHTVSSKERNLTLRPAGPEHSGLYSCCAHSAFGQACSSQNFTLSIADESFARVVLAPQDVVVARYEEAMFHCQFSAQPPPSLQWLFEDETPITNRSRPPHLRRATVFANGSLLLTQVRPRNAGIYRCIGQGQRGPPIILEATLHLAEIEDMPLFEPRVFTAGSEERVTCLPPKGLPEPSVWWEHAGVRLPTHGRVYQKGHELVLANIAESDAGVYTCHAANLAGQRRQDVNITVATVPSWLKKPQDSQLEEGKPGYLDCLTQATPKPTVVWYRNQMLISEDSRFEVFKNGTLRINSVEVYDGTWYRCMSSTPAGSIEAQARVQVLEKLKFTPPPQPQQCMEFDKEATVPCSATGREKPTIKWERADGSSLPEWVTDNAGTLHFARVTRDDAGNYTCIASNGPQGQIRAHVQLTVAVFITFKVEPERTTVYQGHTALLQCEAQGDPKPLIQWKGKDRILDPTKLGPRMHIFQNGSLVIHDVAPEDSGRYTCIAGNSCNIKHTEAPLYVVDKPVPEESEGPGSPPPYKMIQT

T2: Human PTK7 (human, UniProt Q13308 31-1070)
T2 sequence: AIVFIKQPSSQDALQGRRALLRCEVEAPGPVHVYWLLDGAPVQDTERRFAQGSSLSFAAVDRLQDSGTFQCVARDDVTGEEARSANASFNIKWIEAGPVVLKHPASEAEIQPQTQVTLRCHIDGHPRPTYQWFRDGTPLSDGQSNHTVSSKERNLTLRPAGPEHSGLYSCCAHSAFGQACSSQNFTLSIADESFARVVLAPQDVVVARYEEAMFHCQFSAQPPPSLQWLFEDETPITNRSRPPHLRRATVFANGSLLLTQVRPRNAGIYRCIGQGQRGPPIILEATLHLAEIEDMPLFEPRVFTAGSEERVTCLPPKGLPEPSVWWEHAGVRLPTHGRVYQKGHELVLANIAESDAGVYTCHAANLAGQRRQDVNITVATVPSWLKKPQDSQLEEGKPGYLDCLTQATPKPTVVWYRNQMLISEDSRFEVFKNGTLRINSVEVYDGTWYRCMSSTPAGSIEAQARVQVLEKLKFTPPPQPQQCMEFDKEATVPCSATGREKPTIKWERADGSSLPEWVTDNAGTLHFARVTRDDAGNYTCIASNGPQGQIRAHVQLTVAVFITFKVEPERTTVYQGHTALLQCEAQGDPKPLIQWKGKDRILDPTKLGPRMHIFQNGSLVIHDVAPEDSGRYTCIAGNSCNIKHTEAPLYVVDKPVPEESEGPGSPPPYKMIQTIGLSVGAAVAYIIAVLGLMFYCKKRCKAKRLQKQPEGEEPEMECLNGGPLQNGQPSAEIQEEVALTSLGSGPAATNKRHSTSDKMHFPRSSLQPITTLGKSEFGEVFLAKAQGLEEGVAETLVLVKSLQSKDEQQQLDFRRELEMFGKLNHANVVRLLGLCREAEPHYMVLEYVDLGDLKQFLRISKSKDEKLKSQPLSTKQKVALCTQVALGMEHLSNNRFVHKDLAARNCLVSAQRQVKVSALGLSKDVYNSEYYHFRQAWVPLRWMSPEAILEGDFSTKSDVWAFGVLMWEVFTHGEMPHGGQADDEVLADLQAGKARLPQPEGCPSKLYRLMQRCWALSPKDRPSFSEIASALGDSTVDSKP

B1: MYT11392 (antibody, V domains shown)
VH: EVQLVESGGGLVQPGGSLRLSCTASGIDLSNYAVIWVRQAPGKGLEWVGIIYTYDTTYYANWAKGRFTISRDTSKNTVYLQMNSLRAEDTAVYFCARSFSDISDLIKLWGQGTLVTVSS
VL: EIVMTQSPSTLSASVGDRVIITCQASQSLYNNHDLAWYQQKPGKAPKLLIYEASKLASGVPSRFSGSGSGAEFTLTISSLQPDDFATYYCLGEFSCGSGDCLAFGQGTKLTVL
notes: IgG
B2: MYT11394 (antibody, V domains shown)
VH: B1 VH
VL: B1 VL with H33K, L35H
notes: IgG
B3: MYT11409 (antibody, V domains shown)
VH: B1 VH
VL: B1 VL with H33K, S98H
notes: IgG
B4: MYT11398 (antibody, V domains shown)
VH: B1 VH
VL: B1 VL with H33K, S54H
notes: IgG
B5: MYT11396 (antibody, V domains shown)
VH: B1 VH
VL: B1 VL with H33K, E52H
notes: IgG
B6: MYT11410 (antibody, V domains shown)
VH: B1 VH
VL: B1 VL with H33K, G99H
notes: IgG
B7: MYT11393 (antibody, V domains shown)
VH: B1 VH
VL: B1 VL with H33K, D34H
notes: IgG
B8: MYT11033 (antibody, V domains shown)
VH: EVQLVESGGGLVQPGGSLRLSCTASGLSLSSHWMSWVRQAPGKGLEWVGVISAGGNTYYANWAKGRFTISRDTSKNTVYLQMNSLRAEDTAVYFCARGDDGYTNAAYVSNLWGQGTLVTVSS
VL: EIVMTQSPSTLSASVGDRVIITCQASQSISSWLSWYQQKPGKAPKLLIYKASTLASGVPSRFSGSGSGAEFTLTISSLQPDDFATYYCQSYFDSTTIAFGQGTKLTVL
B9: MYT11058 (antibody, V domains shown)
VH: B8 VH with H32Y, G101H
VL: B8 VL
B10: MYT11079 (antibody, V domains shown)
VH: B8 VH with H32Y
VL: B8 VL with S31H
B11: MYT11069 (antibody, V domains shown)
VH: B8 VH with H32Y, F94Y
VL: B8 VL
B12: MYT11063 (antibody, V domains shown)
VH: B8 VH with H32Y, A106H
VL: B8 VL
B13: MYT11084 (antibody, V domains shown)
VH: B8 VH with H32Y
VL: B8 VL with A51H
B14: MYT11081 (antibody, V domains shown)
VH: B8 VH with H32Y
VL: B8 VL with L33H
B15: MYT11053 (antibody, V domains shown)
VH: B8 VH with H32Y, A96H
VL: B8 VL
B16: MYT11078 (antibody, V domains shown)
VH: B8 VH with H32Y
VL: B8 VL with S30H
B17: MYT11059 (antibody, V domains shown)
VH: B8 VH with H32Y, Y102H
VL: B8 VL
B18: MYT11056 (antibody, V domains shown)
VH: B8 VH with H32Y, D99H
VL: B8 VL
B19: MYT11096 (antibody, V domains shown)
VH: B8 VH with H32Y
VL: B8 VL with T95H
B20: MYT11068 (antibody, V domains shown)
VH: B8 VH with H32Y, L111H
VL: B8 VL
B21: MYT11100 (antibody, V domains shown)
VH: B8 VH with H32Y
VL: B8 VL with T106E, V107I, L108K
B22: MYT10952 (antibody, V domains shown)
VH: EVQLVESGGGLVQPGGSLRLSCTASGHSLSSYAMGWVRQAPGKGLEWVGFINAGGNTYYANWAKGRFTISRDTSKNTVYLQMNSLRAEDTAVYFCARRYSRASGWYDLWGQGTLVTVSS
VL: EIVMTQSPSTLSASVGDRVIITCQASQSISSYLAWYQQKPGKAPKLLIYAASTLASGVPSRFSGSGSGAEFTLTISSLQPDDFATYYCQSYSYSSGIDYGDVFGQGTKLTVL
B23: MYT11017 (antibody, V domains shown)
VH: B22 VH with H27F
VL: B22 VL with G96H
B24: MYT10989 (antibody, V domains shown)
VH: B22 VH with H27F, L108H
VL: B22 VL
B25: MYT11005 (antibody, V domains shown)
VH: B22 VH with H27F
VL: B22 VL with S52H
B26: MYT10955 (antibody, V domains shown)
VH: B22 VH with H27F, S30H
VL: B22 VL
B27: MYT10899 (antibody, V domains shown)
VH: EVQLVESGGGLVQPGGSLRLSCTASGFSLSNYVMNWVRQAPGKGLEWVGIIDSHGSTYYASWAKGRFTISRDTSKNTVYLQMNSLRAEDTAVYFCARGLYLWGQGTLVTVSS
VL: EIVMTQSPSTLSASVGDRVIITCQSSQSVYNNNLLAWYQQKPGKAPKLLIYYTSNLASGVPSRFSGSGSGAEFTLTISSLQPDDFATYYCQGGYNGNIYAFGQGTKLTVL
B28: MYT10917 (antibody, V domains shown)
VH: B27 VH with H54S, F94Y
VL: B27 VL

molecular target: T1, Human PTK7/CCK4 Protein, His Tag, Acro …; assay: BLI, antibody on anti-human Fc sensor, 50 nM PTK7

Row | Binder | binding result
1 | B1 | binds
2 | B2 | binds
3 | B3 | binds
4 | B4 | binds
5 | B5 | binds
6 | B6 | binds
7 | B7 | binds

molecular target: T2, Human PTK7; assay: cell-based or functional assay

Row | Binder | Internalization, FOW @ 25 nM (fold over the wildtype, parental antibody)
8 | B8 | 1.19 fold over parental antibody
9 | B9 | 1.26 fold over parental antibody
10 | B10 | 1.2 fold over parental antibody
11 | B11 | 1.22 fold over parental antibody
12 | B12 | 2.04 fold over parental antibody
13 | B13 | 1.14 fold over parental antibody
14 | B14 | 1.22 fold over parental antibody
15 | B15 | 1.25 fold over parental antibody
16 | B16 | 1.24 fold over parental antibody
17 | B17 | 1.27 fold over parental antibody
18 | B18 | 1.1 fold over parental antibody
19 | B19 | 1.43 fold over parental antibody
20 | B20 | 1.22 fold over parental antibody
21 | B21 | 1.17 fold over parental antibody
22 | B22 | 1.06 fold over parental antibody
23 | B23 | 1.2 fold over parental antibody
24 | B24 | 1.09 fold over parental antibody
25 | B25 | 1.05 fold over parental antibody
26 | B26 | 1.05 fold over parental antibody
27 | B27 | 1.14 fold over parental antibody
28 | B28 | 1.29 fold over parental antibody
